Data reported in PMC6547884, “Molecular Basis for poly(A) RNP Architecture and Recognition by the Pan2-Pan3 Deadenylase” (Cell, 2019).

Columns and labels:
[1] = target: the molecule itself; test: cryo-EM structure; substrate-free Pan2cat-Pan3Δ(1-162); Volta phase plate; nominal global resolution about 4.5 Å
[2] = target: the molecule itself; test: cryo-EM structure; Pan2cat-Pan3 with 90A RNA and three Pab1, reconstituted as for SEC and purified on Superose 6; overall nominal resolution 4.8 Å, focused maps 4.7 and 4.5 Å
[3] = target: T1, Ccr4(110-837)-Caf1(146-433) complex (S. cerevisiae, UniProt P31384 110-837; P39008 146-433); test: SEC; reconstitution: purified Not1(754-1000) mixed with Ccr4(110-837)-Caf1(146-433) in equimolar amounts; Superdex200 16/60, 20 mM Tris pH 7.5, 250 mM NaCl, 1 mM DTT; settings: both partners purified
T1 construct: The complex is His-tagged; also called core yeast Ccr4-Caf1 nucleases; source: Trichoplusia ni Hi5 insect cells (pFastBac DUAL), purified (IMAC, heparin, SEC)
T1 sequence (looked up) 1: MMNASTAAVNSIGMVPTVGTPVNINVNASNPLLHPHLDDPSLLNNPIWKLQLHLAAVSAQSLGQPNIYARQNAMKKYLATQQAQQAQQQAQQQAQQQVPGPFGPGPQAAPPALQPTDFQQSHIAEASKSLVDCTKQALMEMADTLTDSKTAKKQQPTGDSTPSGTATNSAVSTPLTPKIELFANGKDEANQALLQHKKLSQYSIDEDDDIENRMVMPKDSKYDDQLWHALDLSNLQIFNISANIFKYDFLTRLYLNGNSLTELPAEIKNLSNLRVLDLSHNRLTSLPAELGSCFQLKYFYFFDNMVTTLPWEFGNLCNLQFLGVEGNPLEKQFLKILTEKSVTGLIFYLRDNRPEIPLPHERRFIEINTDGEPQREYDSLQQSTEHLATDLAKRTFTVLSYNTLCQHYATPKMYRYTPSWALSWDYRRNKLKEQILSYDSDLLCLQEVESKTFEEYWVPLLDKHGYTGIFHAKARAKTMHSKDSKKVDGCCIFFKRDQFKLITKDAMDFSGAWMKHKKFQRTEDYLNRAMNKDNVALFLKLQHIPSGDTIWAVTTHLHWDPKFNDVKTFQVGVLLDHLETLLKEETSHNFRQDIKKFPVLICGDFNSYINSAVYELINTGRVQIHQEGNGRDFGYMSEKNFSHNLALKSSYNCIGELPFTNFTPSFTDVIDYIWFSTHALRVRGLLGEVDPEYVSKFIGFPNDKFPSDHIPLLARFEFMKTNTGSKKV
T1 sequence (looked up) 2: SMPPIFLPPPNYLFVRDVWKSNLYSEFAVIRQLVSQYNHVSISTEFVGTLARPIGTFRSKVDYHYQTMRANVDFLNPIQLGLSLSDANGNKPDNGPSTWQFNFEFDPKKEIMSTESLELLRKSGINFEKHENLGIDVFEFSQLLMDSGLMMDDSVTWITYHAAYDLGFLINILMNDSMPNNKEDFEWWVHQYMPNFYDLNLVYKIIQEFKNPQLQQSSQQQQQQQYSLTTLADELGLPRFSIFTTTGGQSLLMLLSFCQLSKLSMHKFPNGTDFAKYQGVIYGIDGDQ

B1: Pan3Δ(1-162) (domain or fragment, S. cerevisiae, UniProt P36102 163-679, looked up)
chain: SIHTNANAHSFPFPSIANSGGININATDDNSNNMSMANNVPPPMQPPPIESSNLKYPRIYPPPHSLLQYHLYAPEQPSSLKSLLKPNERSADQLFIPNNIREDLTKKNLSILQVFPSSGKVIPSIVQDYFNLVPLNFNNNDFLNKTTLFKVFSNYDGKAYVLKRLPNIDKSMNPNKISKIYQIWSKINCTNLIKFRDIFQTTKFGDLSICLVFDYYPNSLSLYDYHFVNFPKFPITNNYLWIYLVQLTNVINSIHSQNLSIGNTLNWRKVLITGDPGRIKLSHCNFMDLLFNDDTDTVVSSGGSTIEGQQQLDYKYLGELLFNLSINIENSNNNTAPKEYRLEEITPQSIDDMRQIDDKFKDVLKYLISDNGDSKKSIHDLTSHFYDKMFMVLESSQTYTEYMESVLSRELENGRLFRLVNKLNCIFGRIESRIDINWSESGTKFPIILFYDYVFHQVDSNGKPIMDLTHVLRCLNKLDAGIQEKLMLVTPDELNCIIISYKELKDLIESTFRSITQ
notes: Pan3, S. cerevisiae, lacking residues 1-162; Pan3 chain of the substrate-free Pan2cat-Pan3Δ(1-162) cryo-EM sample; also called Pan3ΔN; source: Trichoplusia ni Hi5 insect cells, co-expressed with Pan2cat, purified as a complex
stoichiometry N [1]: 2

B2: Pan3 (S. cerevisiae, C-terminal deca-histidine tag) (natural protein, UniProt P36102 1-679, looked up)
chain: MDKINPDWAKDIPCRNITIYGYCKKEKEGCPFKHSDNTTATTINDVPPPIDVGEATTPTMTSVPKFNAKVSASFTPMTVGSDSLTTVTNTTSAATNATGNIAMAATSATASTVNPMINPIVNSSLVNNNNNNSNISISIPTTASSSNYDPFNAPIFTPSSTSSIHTNANAHSFPFPSIANSGGININATDDNSNNMSMANNVPPPMQPPPIESSNLKYPRIYPPPHSLLQYHLYAPEQPSSLKSLLKPNERSADQLFIPNNIREDLTKKNLSILQVFPSSGKVIPSIVQDYFNLVPLNFNNNDFLNKTTLFKVFSNYDGKAYVLKRLPNIDKSMNPNKISKIYQIWSKINCTNLIKFRDIFQTTKFGDLSICLVFDYYPNSLSLYDYHFVNFPKFPITNNYLWIYLVQLTNVINSIHSQNLSIGNTLNWRKVLITGDPGRIKLSHCNFMDLLFNDDTDTVVSSGGSTIEGQQQLDYKYLGELLFNLSINIENSNNNTAPKEYRLEEITPQSIDDMRQIDDKFKDVLKYLISDNGDSKKSIHDLTSHFYDKMFMVLESSQTYTEYMESVLSRELENGRLFRLVNKLNCIFGRIESRIDINWSESGTKFPIILFYDYVFHQVDSNGKPIMDLTHVLRCLNKLDAGIQEKLMLVTPDELNCIIISYKELKDLIESTFRSITQ
notes: Pan3, S. cerevisiae; The Pan3 chain of m1, written alone for the pairs that touch in the structure and for co-purification; also called Pan3straight; Pan3bent; source: Trichoplusia ni Hi5 insect cells, co-expressed with Pan2, purified as a complex; not shown: His10, C-terminal, kept
stoichiometry N [2]: 2

B3: Not1(754-1000) (domain or fragment, S. cerevisiae, UniProt P25655 754-1000, looked up)
chain: RSRPVQEMIPLKFFAVDEVSCQINQEGAPKDVVEKVLFVLNNVTLANLNNKVDELKKSLTPNYFSWFSTYLVTQRAKTEPNYHDLYSKVIVAMGSGLLHQFMVNVTLRQLFVLLSTKDEQAIDKKHLKNLASWLGCITLALNKPIKHKNIAFREMLIEAYKENRLEIVVPFVTKILQRASESKIFKPPNPWTVGILKLLIELNEKANWKLSLTFEVEVLLKSFNLTTKSLKPSNFINTPEVIETLSG
notes: source: E. coli BL21 DE3, purified (IMAC, tag cleavage, heparin, SEC); not shown: SUMO, N-terminal, cleaved; His tag, N-terminal, cleaved
binding result [3]: binds
